Molecular target: the molecule itself
Experiment: SEC

B1: full length unphosphorylated wild-type MEK6 (natural protein, human, UniProt P52564 1-334, looked up)
chain: MSQSKGKKRNPGLKIPKEAFEQPQTSSTPPRDLDSKACISIGNQNFEVKADDLEPIMELGRGAYGVVEKMRHVPSGQIMAVKRIRATVNSQEQKRLLMDLDISMRTVDCPFTVTFYGALFREGDVWICMELMDTSLDKFYKQVIDKGQTIPEDILGKIAVSIVKALEHLHSKLSVIHRDVKPSNVLINALGQVKMCDFGISGYLVDSVAKTIDAGCKPYMAPERINPELNQKGYSVKSDIWSLGITMIELAILRFPYDSWGTPFQQLKQVVEEPSPQLPADKFSAEFVDFTSQCLKKNSKERPTYPELMQHPFFTLHESKGTDVASFVKLILGD
stoichiometry N: 2

— PMC3689539 (Structure (London, England : 1993), 2009)
